Laboratory results reported in US20150344570A1 (published 2015).
Changes are numbered by the printed parent chain. Numbers in names are those of the source.

T1: FcgRIIa R type extracellular domain, C-terminal His tag (human, UniProt P12318 34-217)
T1 construct: extracellular domain; Soluble analyte in Biacore; also called FcγRIIa R; FcγRIIa(R); not shown: His tag at the C terminus
T1 sequence (looked up): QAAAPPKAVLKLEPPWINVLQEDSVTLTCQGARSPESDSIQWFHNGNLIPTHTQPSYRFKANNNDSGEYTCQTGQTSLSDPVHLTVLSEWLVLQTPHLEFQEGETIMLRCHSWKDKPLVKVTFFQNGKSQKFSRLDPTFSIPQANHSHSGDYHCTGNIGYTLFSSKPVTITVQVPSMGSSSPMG

T2: FcgRIIa H type extracellular domain, C-terminal His tag (human, UniProt P12318 34-217)
T2 construct: extracellular domain; Soluble analyte in Biacore; also called FcγRIIa H; FcγRIIa(H); not shown: His tag at the C terminus
T2 sequence (looked up): T1 sequence (looked up) with R134H

T3: FcgRIIb extracellular domain, C-terminal His tag (human, UniProt P31994 43-217)
T3 construct: extracellular domain; Soluble analyte in Biacore; also called FcγRIIb; not shown: His tag at the C terminus
T3 sequence (looked up): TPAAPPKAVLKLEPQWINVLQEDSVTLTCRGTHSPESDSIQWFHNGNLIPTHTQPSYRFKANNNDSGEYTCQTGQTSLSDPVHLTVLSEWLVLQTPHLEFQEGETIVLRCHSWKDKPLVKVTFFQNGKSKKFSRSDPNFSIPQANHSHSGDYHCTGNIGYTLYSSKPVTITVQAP

T4: FcgRIIaR (human, UniProt P12318 34-217)
T4 construct: extracellular domain; also called FcγRIIa R; FcγRIIa type R; not shown: His tag at the C terminus
T4 sequence (looked up): T1 sequence (looked up)

T5: FcgRIIaH (human, UniProt P12318 34-217)
T5 construct: extracellular domain; also called FcγRIIa H; FcγRIIa type H; not shown: His tag at the C terminus
T5 sequence (looked up): T1 sequence (looked up) with R134H

T6: FcgRIIb (human, UniProt P31994 43-217)
T6 construct: extracellular domain; also called FcγRIIb; CD32B; not shown: His tag at the C terminus
T6 sequence (looked up): T3 sequence (looked up)

B1: H240-Kn179/H240-Hl089/L73-k0 (antibody, human IgG1, kappa)
heavy 1: QDQLVQSGAEVKKPGASVKVSCKASGFNIKDTYIQWVRQAPGQGLEWMGRIDPLRKQTKYREKFEGRVTITADTSTNTAYMELSSLRSEDTAVYYCVRSGREFDYWGQGTLVTVSSASTKGPSVFPLAPSSKSTSGGTAALGCLVKDYFPEPVTVSWNSGALTSGVHTFPAVLQSSGLYSLSSVVTVPSSSLGTQTYICNVNHKPSNTKVDKKVEPKSCDKTHTCPPCPAPEYYWGPMVFLFPPKPKDTLMISRTPEVTCVVVDVSDEDPEVKFNWYVDGVEVHNAKTKPREKQYNATYRVVSVLTVLHQDWLNGKEYKCKVSNKDLPAPIEKTISKAKGQPREPQVCTLPPSRDELTKNQVSLWCLVKGFYPSDIAVEWESNGQPENNYKTTPPVLDSDGSFFLYSKLTVDKSRWQQGNVFSCSVMHEALHNHYTQKSLSLSP
heavy 2: QDQLVQSGAEVKKPGASVKVSCKASGFNIKDTYIQWVRQAPGQGLEWMGRIDPLRKQTKYREKFEGRVTITADTSTNTAYMELSSLRSEDTAVYYCVRSGREFDYWGQGTLVTVSSASTKGPSVFPLAPSSKSTSGGTAALGCLVKDYFPEPVTVSWNSGALTSGVHTFPAVLQSSGLYSLSSVVTVPSSSLGTQTYICNVNHKPSNTKVDKKVEPKSCDKTHTCPPCPAPELLTGPSVFLFPPKPKDTLMISRTPEVTCVVVDVSHEEPEVKFNWYVDGVEVHNAKTKPREEQYNSTYRVVSVLTVLHQDWLNGKEYKCKVSNDALPKPIEETISKAKGQPREPQVYTLPPSRCELTKNQVSLSCAVKGFYPSDIAVEWESNGQPENNYKTTPPVLDSDGSFFLVSKLTVDKSRWQQGNVFSCSVMHEALHNHYTQKSLSLSP
light: DIQMTQSPSSLSASVGDRVTITCRASQDIHKYIAWYQQKPGQAPRLLIQYTSTLQPGVPSRFSGSGSGTDYTFTISSLQPEDIATYYCLQYEQLRTFGGGTKVEIKRTVAAPSVFIFPPSDEQLKSGTASVVCLLNNFYPREAKVQWKVDNALQSGNSQESVTEQDSKDSTYSLSSTLTLSKADYEKHKVYACEVTHQGLSSPVTKSFNRGEC
notes: Combination of E294R in the Kn chain and G236T in the Hl chain; also called H240-Kn179/H240-HI089/L73-k0
B2: H240-Kn033/H240-Hl033/L73-k0 (antibody, human IgG1, kappa)
heavy 1: not shown
heavy 2: not shown
light: B1 light
notes: Anti-epiregulin antibody; native IgG1 with only knobs-into-holes alterations
B3: H240-Kn193/H240-Hl204/L73-k0 (antibody, human IgG1, kappa)
heavy 1: B1 heavy 1 with Y234N, K293R
heavy 2: B1 heavy 2 with I331E
light: B1 light
notes: H240-Kn193 is H240-Kn120 with Y235N and E294R; also called H240-Kn193/H240-HI204/L73-k0
B4: H240-Kn192/H240-Hl204/L73-k0 (antibody, human IgG1, kappa)
heavy 1: B1 heavy 1 with Y234N
heavy 2: B1 heavy 2 with I331E
light: B1 light
notes: H240-Kn192 is H240-Kn120 with Y235N and E294K; also called H240-Kn192/H240-HI204/L73-k0
B5: H240-Kn032/H240-Hl032/L73-k0 (antibody, human IgG1, kappa)
heavy 1: B1 heavy 1 with Y233L, Y234L, W235G, M238D, D267H, K293E, A297S, D326A, A329L, I331E
heavy 2: B1 heavy 2 with T235G, S238D, E269D, D325K, K329L, I331E, E333K
light: B1 light
notes: S239D/A330L/I332E in both H chains
B6: H240-Kn037/H240-Hl036/L73-k0 (antibody, human IgG1, kappa)
heavy 1: B1 heavy 1 with Y233L, Y234L, W235A, M238D, D267H, K293E, A297S, D326A, I331E
heavy 2: B1 heavy 2 with T235A, S238D, E269D, D325K, K329A, I331E, E333K
light: B1 light
notes: it says that both H chains have G236A/S239D/I332E
B7: H240-Kn180/H240-Hl089/L73-k0 (antibody, human IgG1, kappa)
heavy 1: B1 heavy 1 with K293R
heavy 2: B1 heavy 2
light: B1 light
notes: Combination of E294K in the Kn chain and G236T in the Hl chain; also called H240-Kn180/H240-HI089/L73-k0

Legend:
[1] = molecular target: T1, FcgRIIa R type extracellular domain, …; assay: SPR (Biacore); KD of H240-Kn120/H240-Hl068/L73-k0 divided by KD of the variant
Description: (§1) H240-Kn179/H240-H1089/L73-k0, H240-Kn180/H240-Hl089/L73-k0, H240-Kn192/H240-Hl204/L73-k0, and H240-Kn193/H240-Hl204/L73-k0 were prepared by combining each of H240-Kn192 and H240-Kn193 as an H chain, L73-k0 as the L chain, and H240-Hl089 and H240-Hl204 as the other H chain according to the method described in Reference Example 1. The variants described above were assessed for their binding to FcγR according to the method described in Reference Example 8.
(§2) Analysis of interaction between objective antibody and the FcγR was carried out using Biacore T100 (GE Healthcare), Biacore T200, Biacore A100, and Biacore 4000. HBS-EP+ (GE Healthcare) was used as the running buffer, and the measurement temperature was set to 25° C. Chips produced by immobilizing the antigen peptide by the amine coupling method to a Series S sensor Chip CM5 (GE Healthcare), chips produced by allowing preliminarily biotinylated antigen peptides to interact with and immobilize onto a Series S Sensor Chip SA (certified) (GE Healthcare), chips produced by immobilizing Protein L (ACTIGEN, BioVision) to Series S Sencor Chip CM5 (GE Healthcare), or chips produced by immobilizing Protein A/G (Thermo Scientific) to Series S Sencor Chip CM5 (GE Healthcare) were used. Antibodies of interest were captured onto these chips, and allowed to interact to each FcγR diluted with running buffer. To regenerate and repeatedly use the chip, the antibodies captured onto the chip were washed off by reacting 10 mM glycine-HCl, pH 1.5.

[2] = molecular target: T2, FcgRIIa H type extracellular domain, …; assay: as above
Description: as §1, §2

[3] = molecular target: T3, FcgRIIb extracellular domain, …; assay: as above
Description: as §1, §2

[4] = molecular target: T7, FcgRIIIa F type extracellular domain, C-terminal His tag (human, UniProt P08637 17-208); assay: as above
T7 construct: extracellular domain; Soluble analyte in Biacore; also called FcγRIIIa F; not shown: His tag at the C terminus
Description: as §1, §2

[5] = molecular target: T8, FcgRIIIa V type extracellular domain, C-terminal His tag (human, UniProt P08637 17-208); assay: as above
T8 construct: extracellular domain; Soluble analyte in Biacore; also called FcγRIIIa V; not shown: His tag at the C terminus
Description: as §1, §2

FcgRIIaR = molecular target: T4, FcgRIIaR; assay: SPR (Biacore); KD of H240-Kn033/H240-Hl033/L73-k0 divided by KD of the variant
Description: (§3) Binding of the produced variants to FcgRIa, FcgRIIaR, FcgRIIaH, FcgRIIb, FcgRIIIaF, and FcgRIIIaV was measured according to the method of Reference Example 8.
as §2

FcgRIIaH = molecular target: T5, FcgRIIaH; assay: as above
Description: as §3, §2

FcgRIIb = molecular target: T6, FcgRIIb; assay: as above
Description: as §3, §2

FcgRIIIaF = molecular target: T9, FcgRIIIaF (human, UniProt P08637 17-208); assay: as above
T9 construct: extracellular domain; also called FcγRIIIa F; not shown: His tag at the C terminus
Description: as §3, §2

FcgRIIIaV = molecular target: T10, FcgRIIIaV (human, UniProt P08637 17-208); assay: as above
T10 construct: extracellular domain; also called FcγRIIIa V; not shown: His tag at the C terminus
Description: as §3, §2

T10 sequence (P08637 17-208 F176V limits assumed): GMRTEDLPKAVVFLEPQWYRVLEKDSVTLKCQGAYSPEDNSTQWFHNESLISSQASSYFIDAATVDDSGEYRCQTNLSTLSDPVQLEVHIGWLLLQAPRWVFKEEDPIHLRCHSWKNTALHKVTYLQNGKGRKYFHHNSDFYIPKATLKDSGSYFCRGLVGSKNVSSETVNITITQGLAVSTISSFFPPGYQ
T8 sequence (P08637 17-208 F176V): as the sequence (P08637 17-208 F176V limits assumed) above
T7 sequence (P08637 17-208): as the sequence (P08637 17-208 F176V limits assumed) above, with V160F counted along it
T9 sequence (P08637 17-208): as the sequence (P08637 17-208 F176V limits assumed) above, with V160F counted along it

Binder	relative KD [1]	relative KD [2]	relative KD [3]	relative KD [4]	relative KD [5]	fold 2aR (FcgRIIaR) [fold]	fold 2aH (FcgRIIaH) [fold]	fold 2b (FcgRIIb) [fold]	fold 3aF (FcgRIIIaF) [fold]	fold 3aV (FcgRIIIaV) [fold]
B1	1.1	0.9	0.4	0.1	0	–	–	–	–	–
B2	–	–	–	–	–	1	1	1	1	1
B3	1.3	1.2	0.5	0.2	0.2	–	–	–	–	–
B4	1.1	1	0.5	0.2	0.2	–	–	–	–	–
B5	–	–	–	–	–	2.2	0.8	5.3	31.9	15.5
B6	–	–	–	–	–	25.5	11.3	8.7	13.8	7.1
B7	1.3	1.1	0.4	0.1	0	–	–	–	–	–
